The numbers were not newly measured in publication PMC9437947, which cites them from elsewhere.

The series addresses Lys166 (UniProt position 166, RAVKTKIGYPA). Kind of series: kinetics. The conditions noted are these: H297N mutant turning over S-mandelate in the exchange reaction.

For the substance “Mandelate racemase H297N mutant (Pseudomonas putida (inferred; organism not stated in the article); H297N)”, the pKa is recorded as ~ 6.
